Source: patent publication US20050042213A1 (INSIGHT BIOPHARMACEUTICALS, published 2005)

T1: active heparanase (H53), heterodimer of the 8 kDa and 45 kDa subunits (human, UniProt Q9Y251 36-109; Q9Y251 158-543)
T1 sequence 1: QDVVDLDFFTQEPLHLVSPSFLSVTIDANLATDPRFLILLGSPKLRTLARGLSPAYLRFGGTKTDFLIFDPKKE
T1 sequence 2: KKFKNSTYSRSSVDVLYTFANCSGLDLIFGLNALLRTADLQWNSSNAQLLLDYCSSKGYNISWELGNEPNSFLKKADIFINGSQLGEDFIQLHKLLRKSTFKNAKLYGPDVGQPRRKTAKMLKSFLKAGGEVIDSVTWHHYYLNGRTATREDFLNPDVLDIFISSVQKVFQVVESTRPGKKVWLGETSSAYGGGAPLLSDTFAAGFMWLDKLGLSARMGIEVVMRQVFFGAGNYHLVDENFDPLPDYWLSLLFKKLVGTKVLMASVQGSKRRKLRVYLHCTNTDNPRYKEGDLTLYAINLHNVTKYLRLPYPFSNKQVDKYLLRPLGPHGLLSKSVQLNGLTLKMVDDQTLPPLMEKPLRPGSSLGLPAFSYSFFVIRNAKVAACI

T2: pro-heparanase (H60), purified recombinant human 60 kDa latent heparanase (human, UniProt Q9Y251 36-543)
T2 sequence: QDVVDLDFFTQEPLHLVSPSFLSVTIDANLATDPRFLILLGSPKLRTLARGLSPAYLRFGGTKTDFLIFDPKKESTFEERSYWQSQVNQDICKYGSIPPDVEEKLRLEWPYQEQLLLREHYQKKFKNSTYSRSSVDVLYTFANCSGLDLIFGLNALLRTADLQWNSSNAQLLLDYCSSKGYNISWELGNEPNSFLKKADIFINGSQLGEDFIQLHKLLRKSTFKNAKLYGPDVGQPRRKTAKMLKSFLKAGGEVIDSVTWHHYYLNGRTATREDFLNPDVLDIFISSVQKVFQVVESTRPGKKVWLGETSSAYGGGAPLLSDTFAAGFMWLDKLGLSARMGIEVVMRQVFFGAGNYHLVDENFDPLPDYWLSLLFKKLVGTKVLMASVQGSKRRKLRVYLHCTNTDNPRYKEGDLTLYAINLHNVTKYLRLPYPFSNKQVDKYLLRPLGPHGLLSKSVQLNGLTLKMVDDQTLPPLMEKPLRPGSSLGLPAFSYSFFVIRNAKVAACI

B1: P8-4 (peptide)
peptide: PRFLILLGSPKLR
B2: P8-11 (peptide)
peptide: PRFLILL
B3: Pep-7 (peptide)
peptide: CPAYLRFGGTKTDFLIFDPLLE
B4: P8-8 (peptide)
peptide: FLILLGSPKLRTL
B5: P8-16 (peptide)
peptide: DPRFLILL
B6: P8-5 (peptide)
peptide: LRTLARGLSPAYL
B7: Pep-25 (peptide)
peptide: CTWHHYYLNGRTATR
B8: P8-18 (peptide)
peptide: RFLILL

What was measured:
Assay in all cases: cell-based or functional assay
[1] = target: T1, active heparanase (H53), heterodimer of …
[2] = target: T2, pro-heparanase (H60), purified …
[3] = target: T1, active heparanase (H53), heterodimer of …; remark: listed apart in the source

Binder	IC50 H53 [1]	IC50 H60 (µM), H60 activation in the cell-based assay [2]	IC50 Heparanase [3]
B1	2.3 µM		
B2	1.4 µM	65 µM	
B3	7 µM		
B4	8 µM		
B5	6 µM		
B6	18 µM		
B7			21 µM
B8	5 µM		
